According to PMC8591536, “DNA asymmetry promotes SUMO modification of the single‐stranded DNA‐binding protein RPA” (The EMBO Journal, 2021):

T1: Siz2∆CT K65E K66E (Saccharomyces cerevisiae? (budding …, UniProt Q12216 1-420, K65E;K66E))
T1 sequence: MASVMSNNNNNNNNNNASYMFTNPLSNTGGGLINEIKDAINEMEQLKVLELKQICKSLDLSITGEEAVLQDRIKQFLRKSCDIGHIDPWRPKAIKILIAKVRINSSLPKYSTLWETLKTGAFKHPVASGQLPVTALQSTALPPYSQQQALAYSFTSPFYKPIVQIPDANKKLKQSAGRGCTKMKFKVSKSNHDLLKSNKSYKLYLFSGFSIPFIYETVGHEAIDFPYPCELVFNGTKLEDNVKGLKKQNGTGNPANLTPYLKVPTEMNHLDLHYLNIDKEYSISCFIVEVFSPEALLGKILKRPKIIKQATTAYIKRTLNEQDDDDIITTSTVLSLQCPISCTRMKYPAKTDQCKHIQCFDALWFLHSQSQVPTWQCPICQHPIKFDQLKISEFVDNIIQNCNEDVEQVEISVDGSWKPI

B1: 6-FAM-ds20 (dsDNA)
DNA 1: GCTGTAGCTAGTTTTGCTTC
DNA 2: GAAGCAAAACTAGCTACAGC
B2: 6-FAM-ds20ss32 (mixed)
DNA 1: GAAGCAAAACTAGCTACAGCTTTTTTTTTTTTTTTTTTTTTTTTTTTTTTTT
DNA 2: GCTGTAGCTAGTTTTGCTTC

Tests used:
[1] = target: T1, Siz2∆CT K65E K66E; experiment: fluorescence polarization; FP: 20 mM HEPES pH 7.5, 125 mM NaCl, 0.1% Tween-20, 23°C, 50 nM DNA (RPA/SUMO-RPA on ss32: 1 nM DNA, plus 5 mM MgCl2, 1 mM DTT); EMSA: same buffer with 5 mM MgCl2 (Fig 8 also 1 mM DTT), 23°C, 6% gel in 0.5x TBE; conditions: protein: recombinant; tags: His6-thioredoxin removed with TEV; label: 5' 6-FAM on strand 1; blunt
[2] = target: Siz2 full length;RPA (Rfa1/Rfa2/Rfa3) (Saccharomyces cerevisiae? (budding …, UniProt Q12216;P22336;P26754;P26755 1-726;1-621;1-273;1-122, |)); experiment: EMSA; Siz2 titrated into RPA-DNA; 5 mM MgCl2; FP: 20 mM HEPES pH 7.5, 125 mM NaCl, 0.1% Tween-20, 23°C, 50 nM DNA (RPA/SUMO-RPA on ss32: 1 nM DNA, plus 5 mM MgCl2, 1 mM DTT); EMSA: same buffer with 5 mM MgCl2 (Fig 8 also 1 mM DTT), 23°C, 6% gel in 0.5x TBE; conditions: protein: recombinant;recombinant; tags: His6-Smt3 removed with Ulp1;noncleavable N-terminal His6 on Rfa2; copies: 1;1;1;1; label: 5' 6-FAM on strand 2 (fw20); 20 bp duplex, 3' overhang 32 nt (dT)
Sequence of Siz2 full length;RPA (Rfa1/Rfa2/Rfa3) (Saccharomyces cerevisiae? (P22336 whole entry, chain 2 of 3): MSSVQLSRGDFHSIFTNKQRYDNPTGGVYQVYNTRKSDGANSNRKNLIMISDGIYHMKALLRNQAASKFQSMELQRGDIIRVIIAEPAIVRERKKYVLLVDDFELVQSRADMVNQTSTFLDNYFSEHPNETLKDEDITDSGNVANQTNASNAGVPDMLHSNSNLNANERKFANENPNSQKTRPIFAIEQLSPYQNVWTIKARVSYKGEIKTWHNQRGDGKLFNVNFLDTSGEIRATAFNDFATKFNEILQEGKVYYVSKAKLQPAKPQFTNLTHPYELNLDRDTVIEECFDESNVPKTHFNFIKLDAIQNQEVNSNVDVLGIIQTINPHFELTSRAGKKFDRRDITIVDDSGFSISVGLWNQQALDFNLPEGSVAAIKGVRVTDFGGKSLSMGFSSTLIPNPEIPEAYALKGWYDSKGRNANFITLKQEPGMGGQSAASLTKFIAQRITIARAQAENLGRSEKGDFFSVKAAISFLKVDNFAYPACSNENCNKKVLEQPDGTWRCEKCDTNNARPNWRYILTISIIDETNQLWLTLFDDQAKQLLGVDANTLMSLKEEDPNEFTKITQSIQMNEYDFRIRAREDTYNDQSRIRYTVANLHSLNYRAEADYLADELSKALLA
Sequence of Siz2 full length;RPA (Rfa1/Rfa2/Rfa3) (Saccharomyces cerevisiae? (P26754 whole entry, chain 3 of 3): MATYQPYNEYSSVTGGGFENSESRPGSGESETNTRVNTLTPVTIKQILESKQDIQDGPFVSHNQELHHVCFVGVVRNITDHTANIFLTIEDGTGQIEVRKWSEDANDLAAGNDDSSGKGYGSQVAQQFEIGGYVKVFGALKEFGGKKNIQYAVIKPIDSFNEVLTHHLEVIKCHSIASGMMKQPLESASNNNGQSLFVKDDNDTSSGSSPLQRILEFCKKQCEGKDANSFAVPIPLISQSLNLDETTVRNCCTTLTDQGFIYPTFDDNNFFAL
Sequence of Siz2 full length;RPA (Rfa1/Rfa2/Rfa3) (Saccharomyces cerevisiae? (P26755 whole entry, chain 4 of 3): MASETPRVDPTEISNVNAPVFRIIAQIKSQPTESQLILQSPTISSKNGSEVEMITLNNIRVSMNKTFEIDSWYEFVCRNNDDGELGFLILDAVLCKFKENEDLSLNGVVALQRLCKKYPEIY

Row | Binder | binding result [1] | binding result [2]
1 | B1 | no binding | 
2 | B2 |  | binds
